Results on six molecules are retold here after PMC10252837, “A Novel Time-Resolved Fluorescence Resonance Energy Transfer Assay for the Discovery of Small-Molecule Inhibitors of HIV-1 Tat-Regulated Transcription” (International Journal of Molecular Sciences, 2023).

Square brackets hold non-standard residues; d marks the D form. Ends that are not written are not given here. Peptide text beside a SMILES is read from it. * marks the point of attachment. Biotin = O=C1N[C@H]2[C@H](CS[C@H]2CCCCC(=O)*)N1

The target of data set [1] is T1, Tat (ARM)-TAR RNA interaction (Human immunodeficiency virus type 1 group M subtype B, UniProt P04608).
T1 construct: purchased Peptron, Daejeon, Republic of Korea (custom peptide synthesis); host or cells: chemical synthesis
As to the kind of experiment: TR-FRET assay with biotinylated ARM and Eu-conjugated StAV. The format is binding, HIV-1. The settings on record: five-thousand-fold excess. An excerpt:
Initially, a simplified TR-FRET assay was designed to determine the interaction of Tat (ARM)-TAR RNA using 5′-cyanine 5 (Cy5)-labeled TAR RNA (31 nt) and Tat (ARM) tagged with either biotin, HA, FLAG, or FITC; this was based on size-minimalized analytes to focus on the essential biochemical relevance of the Tat-TAR RNA interaction. After Tat (ARM) binds to the TAR RNA, each Eu-conjugated antibody recognized the cognate tag on the Tat (ARM) peptide. When the reaction is irradiated with a 320 nm laser, the emissive energy from the donor Eu chelate is then transferred to the Cy5 dye-labeled to TAR RNA placed at a close distance (~10 nm), resulting in luminescence at 665 nm from Cy5 and 615 nm from Eu. A certain substance inhibiting the Tat-TAR RNA interaction causes the loss of luminescence in the sample at 665 nm emission (Figure 1A). To determine which Eu-conjugated recognizer (anti-Flag, -HA, FITC antibodies, or streptavidin) is appropriate for successfully establishing the TR-FRET assay, 20 nM of ARM tagged with each epitope and the same concentration of Cy5-labeled TAR RNA fragment were incubated with 5 nM of cognate Eu-conjugated recognizer.
StAV-Eu + + + + + + + + + + + + + + + + + + + + + + StAV-Eu + + + + + + + + + + + + […]
Bio-ARM + + + + + + + + + + + + + + + + + + + + + Biotin-ARM - + - + - + - + - + - +
Competitor BSA ARM L-22 LK-3 L-50
Figure S1. […]

The target in a further data set is TAR RNA. More on the design: method as in PMID 19584251. The settings on record: EMSA; read-out: Kd determined by EMSA; cited from earlier work. (Mobility shift assays separate free from complexed probe on a gel.)
Data set [2] relates to Tat (ARM)-TAR RNA interaction. As to the method: To test whether our assay is applicable for screening specific inhibitors of the Tat-TAR RNA interaction, inhibition assays were performed with known inhibitors of the Tat-TAR RNA interaction. […] A dose–response competition assay was conducted at inhibitor concentrations of 0–100 μM to determine their inhibitory curves in our assay. […] Additionally, a dose-responsive competition assay using RNA fragments was performed to validate the specificity of the assay.
Data are expressed as the mean ± SD (n = 3) compared to a control lacking an RNA competitor.
The indicated concentrations of ARM and Cy5-TAR RNA fragments were incubated in 20 μL of 1× LANCE ultra assay buffer in 384-well microtiter plates with or without inhibitor (competitor) for 30 min at 20 °C in the dark. […] The reaction was performed in a final volume of 25 μL. Small volumes of the reaction solution were added automatically using Assist-Plus (Integra Bioscience, Zisers, Switzerland). After adding all the assay components, the plates were sealed with a clear cover. The ARM-TAR RNA interaction signal was measured in an EnSight multimode plate reader (PerkinElmer) using the LANCE protocol of the time-resolved fluorescence (TRF) mode in the Kaleido software (PerkinElmer), according to the manufacturer’s protocol. Briefly, the excitation light was directed to the donor (Eu) from the Xenon flash lamp at 320 nm selected by an optical filter, and then, an integration time of 100 μs and a delay time of 70 μs were provided to remove short-lived background signals; subsequently, two emission lights were detected at 615 nm for the donor (Eu) and 665 nm for the acceptor (Cy5). The TRF was measured from the top using an excitation filter and emission monochromators in a single measurement mode. The TR-FRET output signal was expressed as the emission ratio of acceptor/donor (665/615 nm × 1000) fluorescence counts. The fold activity of the TR-FRET signal for ARM-TAR RNA interaction was calculated compared to the control reaction lacking the ARM peptide.

The test system of the next data set is HIV-1. The conditions noted are these: read-out: IC50 of HIV-1 infection; cited from earlier work.
The subject of another data set is L-50 cyclic peptide. As to the kind of experiment: TR-FRET competition. (Time-resolved FRET reads energy transfer from a long-lived donor to a nearby acceptor.)
For the next data set, the system named is LK3 peptide. As to the kind of experiment: TR-FRET competition.
For a further data set, the system named is L-22 cyclic peptide. Briefly: TR-FRET competition.
In the next data set the test system is L-51 cyclic peptide. Briefly: TR-FRET competition.
For data set [3], the target named is T2, Flag-Tat (ARM) (HIV-1 NL4-3, UniProt P04608).
T2 chain: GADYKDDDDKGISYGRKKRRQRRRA
As to the kind of experiment: TR-FRET; 50 nM each. The conditions noted are these: tags: N-terminal FLAG; label: 5'-Cy5; hairpin without bulge.

A further data set has as its target T3, Tat (ARM), tag-free (HIV-1 NL4-3, UniProt P04608).
T3 chain: GISYGRKKRRQRRRA
Briefly: competition; TR-FRET, 10-fold excess over Flag-ARM. The conditions noted are these: label: 5'-Cy5; hairpin with UCU bulge.

In data set [4] the target is T2, Flag-Tat (ARM). Briefly: TR-FRET; up to 100 nM each; Eu-anti-Flag 5 nM. The settings on record: tags: N-terminal FLAG; label: 5'-Cy5; hairpin with UCU bulge.
The next data set addresses T4, Biotin-Tat (ARM) (HIV-1 NL4-3, UniProt P04608).
T4 chain: Biotin-GISYGRKKRRQRRRA
As to the kind of experiment: TR-FRET; 20 nM each; Eu-StAV; poorly competed by free ARM and L-22. The conditions noted are these: tags: N-terminal biotin; label: 5'-Cy5; hairpin with UCU bulge.

Consider `CC[C@H](C)[C@@H]1NC(=O)[C@H](CCCNC(=N)N)NC(=O)[C@H](CCCNC(=N)N)NC(=O)CNC(=O)[C@H](CCCCN)NC(=O)[C@H](CCCNC(=N)N)NC(=O)[C@H]([C@@H](C)O)NC(=O)[C@H](CCCNC(=N)N)NC(=O)[C@H](C(C)C)NC(=O)[C@H](CCCNC(=N)N)NC(=O)[C@@H]2CCCN2C(=O)[C@H]2CCCN2C(=O)[C@H]([C@@H](C)CC)NC(=O)[C@H](CCCNC(=N)N)NC1=O` [Hit L-22] (cyclo(RVRTRKGRRIRI[dP]P)), for which, in data set [1], the “inhibition of TR-FRET signal, in words” value is on record as “insufficient inhibition”. The Kd (as a rule, a measure of binding affinity in units of concentration) on TAR RNA was 30 nM. In addition, the IC50 (commonly the concentration that gives 50% inhibition) in [2] (read-out: IC50 of ARM-TAR RNA interaction (TR-FRET competition), 50 nM Flag-ARM and 5′-Cy5-TAR RNA, inhibitor 0-100 μM) worked out at 228 nM.

Turning to GISYGRKKRRQRRRA [ARM], the “inhibition of TR-FRET signal, in words” value in data set [1] is “insufficient inhibition”. Besides, in data set [2] (500 nM competitor, control of primary screen), the “inhibition of TR-FRET signal” value is ~ 70%. For the same molecule, the “TR-FRET signal in peptide/protein competition assay, in words” value in [2] (10-fold excess competitor, 50 nM analytes) is given as “significantly decreased”.

Consider `Nc1ccc2oc(-c3cc(F)c(F)cc3Cl)nc2c1` [Hit T0516-4834], for which the IC50 with HIV-1 was 200 nM.

Regarding “GGCCAGAUCUGAGCCUGGGAGCUCUCUGGCC [Cy5-TAR RNA (31 nt)]”, the IC50 with L-50 cyclic peptide worked out at 95.9 nM; in the data set on LK3 peptide, 67.8 nM; with L-22 cyclic peptide, 228 nM; with L-51 cyclic peptide it was 276 nM.

Take GGCCAGAGAGCCUGGGAGCUCUCUGGCC (structured_RNA) [Cy5-mt TAR RNA (28 nt, bulge-free)]: the binding result with Flag-Tat (ARM) [3] is given as “no binding”.

As for GGCCAGAUCUGAGCCUGGGAGCUCUCUGGCC (structured_RNA) [Cy5-TAR RNA (31 nt)], the binding result was “binds” in the data set with Tat (ARM), tag-free and “binds” with Biotin-Tat (ARM). Further, the binding signal with Flag-Tat (ARM) [4] was ~11 fold signal over background.
